Experimental findings from paper PMC2965215 are described below.

The data set has as its target T1, ORF904 primase domain Y352A (Sulfolobus islandicus plasmid pRN1, UniProt Q54324 40-370, Y352A).
T1 sequence: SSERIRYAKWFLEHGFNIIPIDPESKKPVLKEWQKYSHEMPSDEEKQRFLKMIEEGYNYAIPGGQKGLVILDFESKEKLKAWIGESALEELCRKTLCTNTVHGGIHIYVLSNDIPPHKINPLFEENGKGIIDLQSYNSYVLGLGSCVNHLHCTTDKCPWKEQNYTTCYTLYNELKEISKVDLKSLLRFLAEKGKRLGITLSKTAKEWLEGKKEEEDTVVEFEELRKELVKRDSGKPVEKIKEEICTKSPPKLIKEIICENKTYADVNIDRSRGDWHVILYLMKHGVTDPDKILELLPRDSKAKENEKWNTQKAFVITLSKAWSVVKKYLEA
Briefly: fluorescence anisotropy. On the technique in general: In fluorescence polarisation assays a small probe gives low polarisation when free and higher when bound to something large.

Molecule TCTTCTGTGCACTCTTC (ssDNA) [templatefluo] registered a Kd of 1030 ± 80 nM.

What is called Kd is the free concentration of one partner at which half of the binding sites on the other are occupied at equilibrium, for simple one-to-one binding. Read a high Kd as weaker binding.
